Test results as given in paper PMC13186710.

Tests used:
[1] = target: GRK2-phosphorylated FLAG-tagged mouse Smoothened (residues 64-674) I573A F577A R580A (mouse) (UniProt P56726); test: SPR; biotinylated SMO nanodiscs captured (Biotin CAPture kit, 250-350 RU); myr-PKA-Cα-K7C 16 nM-1 uM injected; 20 mM MOPS pH 7.0, 150 mM NaCl, 100 uM EDTA, 1 mM ATP, 10 mM MgCl2, 0.001% P20, 25 °C; Biacore 3000; steady-state analysis
[2] = target: GRK2-phosphorylated FLAG-tagged mouse Smoothened (residues 64-674), wild type (mouse) (UniProt P56726); test: as above
[3] = target: Nonphosphorylated, SAG21k-bound FLAG-tagged mouse Smoothened (residues 64-674) S570C (mouse) (UniProt P56726); test: cross-linking; disulfide trapping with 5 mM diamide, 1 h, room temperature; FLAG-SMO (4 ul of 12.5 uM) and PKA-C (4 ul of 6.25 uM) in 10 ul, 20 mM HEPES, 150 mM NaCl, 0.025% GDN, SAG21k, 1 mM ATP, 10 mM MgCl2, pH 8.0; non-reducing SDS-PAGE

| Kd [1] [nM] | Kd [2] [nM] | percent of the disulfide trapping that depends on SMO phosphorylation (against pSMO S570C) [3] [%] | Substance |
| --- | --- | --- | --- |
| 222 | 82 | – | Myristoylated PKA-Cα K7C (enzyme) |
| – | – | 54 | Mouse PKA-C G136C in the minimal-cysteine ((−)Cys, C199A) background (enzyme) |
